Source: publication PMC2755179 (Autophagy, 2008)

T1: γHV68 M11 (murine γ-herpesvirus 68, UniProt P89884 1-136)
T1 sequence: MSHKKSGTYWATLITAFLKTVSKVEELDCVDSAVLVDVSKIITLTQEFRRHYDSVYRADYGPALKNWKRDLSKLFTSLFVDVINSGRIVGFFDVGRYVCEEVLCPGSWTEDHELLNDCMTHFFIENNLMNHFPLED

T2: KSHV Bcl-2 (Kaposi's sarcoma-associated HV, UniProt P90504)
T2 sequence: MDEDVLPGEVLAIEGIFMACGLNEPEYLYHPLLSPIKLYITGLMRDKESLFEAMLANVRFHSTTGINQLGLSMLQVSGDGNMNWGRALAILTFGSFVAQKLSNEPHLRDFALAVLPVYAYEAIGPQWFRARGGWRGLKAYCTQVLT

B1: MBP•Beclin 1(1–135)•His6 (domain or fragment, human, UniProt Q14457 1-135, looked up)
chain: MEGSKTSNNSTMQVSFVCQRCSQPLKLDTSFKILDRVTIQELTAPLLTTAQAKPGETQEEETNSGEEPFIETPRQDGVSRRFIPPARMMSTESANSFTLIGEASDGGTMENLSRRLKVTGDLFDIMSGQTDVDHP

Key:
Assay in all cases: ITC
γHV68 M11 = molecular target: T1, γHV68 M11
KSHV Bcl-2 = molecular target: T2, KSHV Bcl-2
cellular Bcl-2 = cellular Bcl-2 (UniProt P10415 1-211)
Sequence of cellular Bcl-2 (P10415 1-211): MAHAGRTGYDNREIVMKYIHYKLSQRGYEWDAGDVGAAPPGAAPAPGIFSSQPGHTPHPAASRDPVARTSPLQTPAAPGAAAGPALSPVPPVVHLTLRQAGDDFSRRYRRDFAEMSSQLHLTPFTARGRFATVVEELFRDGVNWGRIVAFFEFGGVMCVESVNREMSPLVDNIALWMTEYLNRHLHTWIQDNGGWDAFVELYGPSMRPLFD

Row | Binder | Kd (γHV68 M11) [µM] | Kd (KSHV Bcl-2) [µM] | Kd (cellular Bcl-2) [µM]
1 | DGGTMENLSRRLKVTGDLFDIMSGQT (peptide, UniProt Q14457 105-130, looked up) [Beclin 1 BH3 domain] | 1.1 | 13.3 | 8
2 | B1 | 0.2 | 54.2 | 8.6
